# System: human umbilical vein endothelial cells (HUVEC)
# Assay: Uptake of fluorophore-labeled cow's milk exosomes into HUVECs
# Format: cell-based
# Conditions: exosomal surface proteins removed by proteinase K
molecule,measurement,value
"proteinase K: non-specific protease used to remove surface proteins of exosomes or cells (protein, UniProt P06873 106-384, looked up) Proteinase K: AAQTNAPWGLARISSTSPGTSTYYYDESAGQGSCVYVIDTGIEASHPEFEGRAQMVKTYYYSSRDGNGHGTHCAGTVGSRTYGVAKKTQLFGVKVLDDNGSGQYSTIIAGMDFVASDKNNRNCPKGVVASLSLGGGYSSSVNSAAARLQSSGVMVAVAAGNNNADARNYSPASEPSVCTVGASDRYDRRSSFSNYGSVLDIFGPGTSILSTWIGGSTRSISGTSMATPHVAGLAAYLMTLGKTTAASACRYIADTANKGDLSNIPFGTVNLLAYNNYQA",exosome uptake,~50 % of controls

# — US12290533B2, “Extracellular vesicles and methods of using” (NUtech Ventures, priority 2018, dated 2025)
